The record followed here is US12098206B2, “PDGF receptor antibody and use thereof” (Seoul National University R&DB Foundation, priority 2018, dated 2024).

Data set [1] deals with T1, NIH3T3 cells expressing mPDGFR-β (Mus musculus, UniProt P05622).
T1 construct: host or cells: NIH3T3
Description: Flow cytometry binding to NIH3T3 cells expressing mPDGFR-β. The following applies: for binding to NIH3T3 cells: 100 nM, FIG. 18. As for the experimental part: mPDGF-BB was biotinylated using a biotin-xx microscale protein labeling kit (Invitrogen) according to the manufacturer's instructions. NIH3T3 cells were cultured at 4° C. for 1 hour using the bispecific antibody of scFv-Cκ-scFv fusion protein (100 nM) under two different conditions with or without mPDGF-BB-biotin (100 nM). The cells were washed 4 times with flow cytometry buffer and cultured with allophycocyanin (APC)-anti-human Cκ antibody (clone TB28-2; BD Biosciences, San Jose, CA, USA) and streptavidin-phycoerythrin (PE) (12-4317-87; eBioscience, ThermoFisher). After washing, it was classified and analyzed with a FACS Canto II instrument (BD Biosciences, San Jose, CA, USA). 10,000 cells were used for each measurement, and the results were analyzed by FlowJo (Tree Star, Ashland, OR, USA). […] The binding ability of the other three clones was inhibited by mPDGF-BB.
Specifically, the bispecific antibody scFv-Cκ-scFv fusion protein (100 nM) in flow cytometry buffer was cultured on NIH3T3 cells expressing mPDGFR-β. The cells were treated with APC-anti human Cκ antibody. The bispecific antibody anti-HER2 x cotinine scFv-Cκ-scFv fusion protein was used as a negative control.
In general terms: A flow cytometer gives signals particle by particle.

The subject of another data set is NIH3T3 cells. Put plainly: cells. The format is cell-based, mouse. As for the experimental part: NIH3T3 cells were added to 50 μL of DMEM supplemented with 10% FBS and 1% penicillin/streptomycin, placed in a 96-well plate (CLS3595, Corning) and incubated overnight in 5% CO2 at 37° C. incubator. In each well containing 50 μL of cells, 50 μL of 50 anti-PDGFR-β x cotinine scFv-Cκ-scFv fusion protein (25.6 pM-2 μM) complexed with cot-duo or cot-duo-cot obtained in Experimental Example 10 was added and incubated for 72 hours in 5% CO2 at 37° C. incubator. To test mPDGF-BB on the toxic effect of the bispecific antibody of scFv-Cκ-scFv and the cotinine-duocarmycin complex, mPDGF-BB (2 nM) was added together with 50 μL of the bispecific antibody scFv-Cκ-scFv and the cotinine-duocarmycin complex. The mixed complexes were added to 50 μL of NIH3T3 cells.
The bispecific antibody of anti-HER2 x cotinine scFv-Cκ-scFv was used as a control. After 72 hours of incubation in the cells, 100 μL of Cell Titer-Glo reagents (Promega Corp., Madison, WI, USA) were added to all wells according to the manufacturer's instructions, and luminescence was measured in a luminometer (PerkinElmer, Waltham, MA, USA). The experiment was repeated 3 times. Relative viability was calculated with the following formula: [% viability=(luminescence of experimental well-luminescence of background well)/(luminescence of control-luminescence of background well)×100]. The wells containing only new medium were used as background wells.
To evaluate the toxicity of the complex of anti-mPDGFR-B x cotinine scFv-Cκ-scFv bispecific antibodies and cotinine duocarmycin (cot-duo, cot-duo-cot), the complexes were added to NIH3T3 cells in the presence/absence of mPDGF-BB. The ATP of the cells was measured for relative cell viability. The toxicity of the bispecific antibody of scFv-Cκ-scFv fusion antibody was shown by IC50 in Table 6 and FIG. 5.
It was carried out in the same manner as in Example 7, except that the bispecific antibody related with the anti-mPDGFR-β antibody and the bispecific antibody related with the anti-hPDGFR-β antibody prepared in Example 10 were used. FIG. 20a to FIG. 20b are graphs showing the difference in cytotoxic activity of PRb-CN01 and PRb-CN32 bispecific antibodies and cotinine-duocarmycin complexes in the cells expressing PDGFR-β. In FIG. 20b, an experiment was repeated in the presence of mPDGF-BB.

The target of a further data set is T2, mPDGFR-β (Mus musculus, UniProt P05622).
T2 construct: mPDGFR-β
T2 sequence (P05622 32-530): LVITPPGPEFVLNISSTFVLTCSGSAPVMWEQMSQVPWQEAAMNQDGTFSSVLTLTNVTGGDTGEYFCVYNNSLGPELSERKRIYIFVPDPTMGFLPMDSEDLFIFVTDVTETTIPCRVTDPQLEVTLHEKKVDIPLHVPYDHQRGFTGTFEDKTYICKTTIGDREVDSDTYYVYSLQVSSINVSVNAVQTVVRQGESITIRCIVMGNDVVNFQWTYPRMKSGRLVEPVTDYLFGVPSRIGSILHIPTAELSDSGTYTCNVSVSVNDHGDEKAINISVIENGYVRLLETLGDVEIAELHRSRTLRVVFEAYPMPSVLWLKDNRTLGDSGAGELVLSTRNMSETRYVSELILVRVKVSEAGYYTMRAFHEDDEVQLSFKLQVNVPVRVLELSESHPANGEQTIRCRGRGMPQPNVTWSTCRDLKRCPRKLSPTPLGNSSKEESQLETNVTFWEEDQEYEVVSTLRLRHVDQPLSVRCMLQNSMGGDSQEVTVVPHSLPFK
Put plainly: Competition enzyme immunoassay against PRb-CN01-rabbit Fc on mPDGFR-β-hFc. The following applies: competitor bispecific scFv-Cκ-scFv 100 nM; FIG. 19a. The data set is classed as binding. The method, then: It was carried out in substantially the same manner as the enzyme immunoassay method for antibody binding ability of Example 3, except that mPDGFR-β-hFc chimeric protein was coated with O/N on a microtiter plate at a temperature of 4° C. After incubating the blocking agent in each well, various concentrations of PRb-CN01-rabbit Fc (0.01 nM-1 μM) and PRb-CN01, control anti-HER2 antibody, and PRb-CN32 bispecific scFv-Cκ-scFv (100 nM) diluted in 3% BSA/PBS were reacted in each well at 37° C. for 2 hours. After washing the plate three times with PBST, the HRP-anti rabbit Fc antibody was reacted at 37° C. for 1 hour, and after washing, the reaction was performed using ABTS. Then, the absorbance was measured at 405 nm with a Multiscan Ascent microplate device (Labsystems, Helsinki, Finland) (FIG. 19A). FIG. 19a is the result of confirming the competition for the PRb-CN01 surrogate antibody.

T1 sequence (P05622 32-1098): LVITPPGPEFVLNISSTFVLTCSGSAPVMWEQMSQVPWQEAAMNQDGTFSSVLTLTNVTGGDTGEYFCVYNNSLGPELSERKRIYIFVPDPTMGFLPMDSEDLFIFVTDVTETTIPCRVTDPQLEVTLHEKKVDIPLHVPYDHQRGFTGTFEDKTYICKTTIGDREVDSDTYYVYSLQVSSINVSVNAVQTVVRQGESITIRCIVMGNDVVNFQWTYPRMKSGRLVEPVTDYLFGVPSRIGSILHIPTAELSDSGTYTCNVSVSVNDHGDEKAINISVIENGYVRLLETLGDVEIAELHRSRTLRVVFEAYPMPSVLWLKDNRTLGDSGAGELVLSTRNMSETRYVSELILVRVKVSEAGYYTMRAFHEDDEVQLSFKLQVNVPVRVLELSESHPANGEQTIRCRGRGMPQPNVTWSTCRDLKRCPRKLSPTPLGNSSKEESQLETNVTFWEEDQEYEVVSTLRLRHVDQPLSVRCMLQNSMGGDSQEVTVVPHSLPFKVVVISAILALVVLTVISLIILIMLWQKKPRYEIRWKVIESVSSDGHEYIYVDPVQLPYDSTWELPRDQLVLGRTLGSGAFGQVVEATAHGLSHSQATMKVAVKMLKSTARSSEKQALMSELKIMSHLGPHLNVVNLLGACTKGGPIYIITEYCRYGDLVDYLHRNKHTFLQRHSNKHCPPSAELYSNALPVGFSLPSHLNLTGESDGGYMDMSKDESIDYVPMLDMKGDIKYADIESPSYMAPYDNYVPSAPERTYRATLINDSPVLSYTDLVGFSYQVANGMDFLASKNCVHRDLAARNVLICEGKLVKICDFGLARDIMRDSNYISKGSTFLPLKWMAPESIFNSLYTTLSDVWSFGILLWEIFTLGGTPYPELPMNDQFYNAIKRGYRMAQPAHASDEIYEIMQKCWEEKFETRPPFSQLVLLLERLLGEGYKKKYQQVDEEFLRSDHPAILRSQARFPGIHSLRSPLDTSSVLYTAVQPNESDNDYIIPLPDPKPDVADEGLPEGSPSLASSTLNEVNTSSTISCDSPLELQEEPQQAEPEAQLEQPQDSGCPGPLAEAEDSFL

B1: PRb-CN01: anti-mPDGFR-β chicken scFv clone (VH SEQ ID NO 7, VL SEQ ID NO 8), tested as scFv-Cκ-anti-cotinine scFv bispecific antibody (antibody, V domains shown)
VH: AVTLDESGGGLQTPGGALSLVCKASGFTFSDRAMHWVRQAPGKGLEWVGLITNTGGSTNYGAAVKGRATISRDNGQSTVRLQLNNLRAEDTGTYYCTRGVGSWAHGGRIDAWGHGTEVIVSS
VL: LTQPSSVSANPGETVKITCSGGSGSYGWFQQKSPGSAPVTVIYSNNQRPSDIPSRFSGSKSGSTNTLTITGVQAEDEAIYYCGTRDSSYVGIFGAGTTLTVL
modifications: VH of PRb-CN01; VL of PRb-CN01
B1: in data set [1] (100 nM antibody, mPDGF-BB-biotin 100 nM, FIG. 4b), the “cell binding in the presence of mPDGF-BB-biotin” value was “bound to PDGFR-β present on the cell surface”. Besides, the “binding to NIH3T3 cells” value in data set [1] is recorded as “bound to NIH3T3 cells”. Further, the “cytotoxicity of complex with cotinine-duocarmycin, PRb-CN01 versus PRb-CN32” value with NIH3T3 cells was “equivalent cytotoxicity regardless of the presence/absence of mPDGF-BB”. Besides, the “toxicity with the addition of mPDGF-BB” value in the data set on NIH3T3 cells (complex with cot-duo or cot-duo-cot, NIH3T3, FIG. 5) is reported as “also high with the addition of mPDGF-BB”. Also, the “toxicity compared to control anti-HER2 x cotinine scFv-Cκ-scFv” value in the data set on NIH3T3 cells (complex with cotinine-duocarmycin, NIH3T3, with or without mPDGF-BB, FIG. 5) was “highest toxicity”. In addition, in the data set with NIH3T3 cells (cotinine-duocarmycin complexed with antibody, in the presence of mPDGF-BB, p<0.01), the “toxicity compared to free duocarmycin” value is “significantly more toxic than free duocarmycin”. For the same molecule, the “inhibition of binding of PRb-CN01-rabbit Fc to mPDGFR-β-hFc chimeric protein” value with mPDGFR-β is on record as “inhibited”.

B2: PRb-CN32: anti-hPDGFR-β scFv clone (VH SEQ ID NO 47, VL SEQ ID NO 48), tested as scFv-Cκ-anti-cotinine scFv bispecific antibody (antibody, V domains shown)
VH: AVTLDESGGGLQTPRGTLSLVCKASGFTFSSFNMFWVRQAPGKGLEFVAGISTTGRYTGYGSAVQGRGTISRDNGQSTVRLQLNNLRAEDTGTYYCAKSAGSTYSYWDSDAGLIDAWGHGTEVIVSSTS
VL: LTQPSSVSANLGETVKITCSGGSNAGSYYYGWYQQKSPGSAPVTVIYSNNQRPSDIPSRFSGSTSGSTSTLTITGVQVDDEAVYFCGSGDSSSIAAFGAGTTLTVL
modifications: VH of PRb-CN32; VL of PRb-CN32
For the molecule B2, the “binding to NIH3T3 cells” value in data set [1] was “bound to NIH3T3 cells”. The “cytotoxicity of complex with cotinine-duocarmycin, PRb-CN01 versus PRb-CN32” value in the data set with NIH3T3 cells is “equivalent cytotoxicity regardless of the presence/absence of mPDGF-BB”. In the data set with mPDGFR-β, the “inhibition of binding of PRb-CN01-rabbit Fc to mPDGFR-β-hFc chimeric protein” value is reported as “inhibited”.
